This is an account of results in publication PMC3702404 (Nature structural & molecular biology, 2013).

The stoichiometry N is a count of units in the complex or per binding partner. Usually Kd stands for the constant that tells how readily two partners part at equilibrium. Lower therefore signals tighter binding. As a reminder, the EC50 is the concentration giving half of the maximal effect. Higher therefore signals weaker potency.

Values joined by “and” are separate entries in the source; they are usually repeats but may differ in a detail not shown here. Equal entries are not always repeated. Where two headings read alike, the source gives them in different places.

B2: PpsR (full-length) (natural protein, Rhodobacter sphaeroides, UniProt Q3J179 1-464, looked up)
chain: MLAGGSLPSLAPDLVRDLIATAADISLLVSQEGVVREVMANPHHPSFGQLSEWEGRPLEEVLTAESVAKFRLRSEGLEPGRGSVAVELNHIDPRSFEFPIRYILHRLPADRSILMLGRDLRPIAEVQQQLVAAQLAMERDYETQREMETRYRVVLDVSRDPMVLVSMSTGRIVDLNSAAGLLLGGVRQDLLGAAIAQEFEGRRRGEFMETMTNLAATESAAPVEVLARRSQKRLLVVPRVFRAAGERLLLCQIDPADATQPVGDELSENLARLYHEGVDGIVFSDADGTIRGANEAFLNMTDSSSLAAIRGRSIADFLARGSVDLRVLIDSVRRTGQLRLYATRLTTDFAGQIAAEISATWLDDRERPLLVLVVRDTSRADTMRRPVPATGVIDEPARNVMELVGNSTLKDIVAETTDVVEKMCIETALELTRNNRVAAAEMLSLSRQSLYVKLRKFGLLNKDE

The series “crystal structure” concerns the molecule itself. Briefly: crystal structure.
The series “MST” concerns the molecule itself. Briefly: MST.
Series [1] concerns the target B2. Briefly: native gel or EMSA.
In series [2] the target is B2. Briefly: MST.
For series [3], the target named is B2. As to the kind of experiment: native gel or EMSA. This is another data set of the same source. On the technique in general: A gel shift assay detects complexes by their altered migration in electrophoresis.
Series [4] addresses B2. As to the kind of experiment: HDX-MS.

B1: PpsR ΔHTH (domain or fragment, Rhodobacter sphaeroides)
chain: LAGGSLPSLAPDLVRDLIATAADISLLVSQEGVVREVMANPHHPSFGQLSEWEGRPLEEVLTAESVAKFRLRSEGLEPGRGSVAVELNHIDPRSFEFPIRYILHRLPADRSILMLGRDLRPIAEVQQQLVAAQLAMERDYETQREMETRYRVVLDVSRDPMVLVSMSTGRIVDLNSAAGLLLGGVRQDLLGAAIAQEFEGRRRGEFMETMTNLAATESAAPVEVLARRSQKRLLVVPRVFRAAGERLLLCQIDPADATQPVGDELSENLARLYHEGVDGIVFSDADGTIRGANEAFLNMTDSSSLAAIRGRSIADFLARGSVDLRVLIDSVRRTGQLRLYATRLTTDFAGQIAAEISATWLDDRERPLLVLVVRDTSR
As for B1, the “stoichiometry N” value in the series “crystal structure” was 4 and 8.

As for B2, in the series “MST”, the affinity, expressed as Kd, was 0.9 µM.

B3: AppA Δ399 C20S (domain or fragment, Rhodobacter sphaeroides)
chain: HDLEADVTMTGSDLVSCSYRSLAAPDLTLRDLLDIVETSQAHNARAQLTGALFYSQGVFFQWLEGRPAAVAEVMTHIQRDRRHSNVEILAEEPIAKRRFAGWHMQLSCSEADMRSLGLAESRQIVTVGRSLVADNTNIFSFDRIAAVRRFLSDVCAARTLAPDTPVEADTFALYALTEAQAGRSGRAKAVARLSDLLSTDPLGRLTEVEELLRAHAPTAADFARLFEACAERLTRALAEDRISRMQVTLAYSALQMALRRIHHLPDPQKSVGAVLVAGVPGHKPILEAALAAEMLRAVGWSTSVVHPESVAALAARLKTSRTSTLVVAPSLLEGTEQEADTLRFVSALRARTDLPGLSILVGGRLAQLPPSKLKDSGADAGFAHLALLPAALARVA
With B3, the EC50 with PpsR (full-length) [1] is 2.3 µM; in the series with PpsR (full-length) [3], 1.4 µM. In addition, the dissociation constant (Kd) was 1.3 µM with PpsR (full-length) [2] and ~1.5 µM in the series with PpsR (full-length) [4].
